± gives the standard error. This sample holds only a part of the variants without activity.
B1: glmS ribozyme (parent)
chain: AUAAAAGCGCCAGAACUACAGAAAUGUAGUUGACGAGGAGGAGGUUUAUCGAAUUUUCGGCGGAUGCCUCCAAA

Columns and labels:
Settings in all cases: with glucosamine-6-phosphate
[1] = variants of: B1; test: self-cleavage kobs at 40 uM GlcN6P; higher = faster cleavage; RNA array
Outline: (§1)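 In situ transcription by E. coli RNA polymerase produced barcoded ribozyme variants on sequenced MiSeq chips, and a hybridised Cy3 probe tracked them at 37 °C. Glucosamine-6-phosphate was flowed in at 40 μM to 10 mM in HEPES/KCl/Mg(OAc)2 buffer. kcat and KM were taken from weighted Michaelis–Menten fits of kobs values from exponential decay fits.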

[2] = variants of: B1; test: self-cleavage kobs at 160 uM GlcN6P; higher = faster cleavage; RNA array
Outline: as §1

[3] = variants of: B1; test: self-cleavage kobs at 640 uM GlcN6P; higher = faster cleavage; RNA array
Outline: as §1

[4] = variants of: B1; test: self-cleavage kobs at 2500 uM GlcN6P; higher = faster cleavage; RNA array
Outline: as §1

[5] = variants of: B1; test: self-cleavage kobs at 10000 uM GlcN6P; higher = faster cleavage; RNA array
Outline: as §1

Variant	self-cleavage kobs at 40 uM GlcN6P [1] [s⁻¹]	self-cleavage kobs at 160 uM GlcN6P [2] [s⁻¹]	self-cleavage kobs at 640 uM GlcN6P [3] [s⁻¹]	self-cleavage kobs at 2500 uM GlcN6P [4] [s⁻¹]	self-cleavage kobs at 10000 uM GlcN6P [5] [s⁻¹]
U55A U56G	0.000292 ± 4.8e-05	0.000454 ± 8.8e-05	0.00368 ± 0.00046	0.00771 ± 0.0013	0.0097 ± 0.0019
G44A G59C	< 1e-05	< 1e-05	< 1e-05	< 1e-05	< 1e-05
G35U U45A C50G	< 1e-05				
U31A G37A C50G A53U C67U	5.38e-05 ± 1.9e-05				
C8U U30G A36G C68U	< 1e-05	< 1e-05			
C11U A33C A53U U57G G60U	< 1e-05				< 1e-05
G9U G60U C71G	< 1e-05				
C10G A12U U30G	< 1e-05				
G51A G63U	< 1e-05				< 1e-05
U30G U45A C71U	0.000183 ± 4.7e-05				0.00282 ± 0.0011
G35U G63U	< 1e-05	< 1e-05	< 1e-05	< 1e-05	< 1e-05
A33G A39U G41C	< 1e-05				< 1e-05
C8U G59A	< 1e-05	< 1e-05	< 1e-05		< 1e-05
A15C C34A G37U G41A	< 1e-05				< 1e-05
G32A G43C	< 1e-05	< 1e-05		< 1e-05	
G43A C67G C68G	5.46e-05 ± 1.7e-05		0.000155 ± 4.7e-05	6.83e-05 ± 1.7e-05	7.38e-05 ± 1.4e-05
A36U G51A	< 1e-05	< 1e-05			< 1e-05
A12U U57C C61A	< 1e-05		< 1e-05		< 1e-05
G7U U31C C68G	0.000102 ± 3.2e-05				
A6U G43A U45G U57A G59U	< 1e-05				< 1e-05
C10U A12G G13C	< 1e-05				< 1e-05
A39C U49G	< 1e-05	< 1e-05		4.21e-05 ± 1.9e-05	6.91e-05 ± 9.5e-06
A14G U54A	0.00167 ± 0.00022	0.00342 ± 0.0007	0.027 ± 0.0081	0.0173 ± 0.0047	0.103 ± 0.048
A14U U55G C58U G66U C67G	0.00272 ± 0.001				
A39U C70U	0.000786 ± 6.4e-05	0.00158 ± 0.00038	0.00436 ± 0.00059	0.0108 ± 0.0033	0.0395 ± 0.0076

Variant	self-cleavage kobs at 40 uM GlcN6P [1] [s⁻¹]	self-cleavage kobs at 160 uM GlcN6P [2] [s⁻¹]	self-cleavage kobs at 640 uM GlcN6P [3] [s⁻¹]	self-cleavage kobs at 2500 uM GlcN6P [4] [s⁻¹]	self-cleavage kobs at 10000 uM GlcN6P [5] [s⁻¹]
C11G G32U	< 1e-05	< 1e-05			< 1e-05
A33C C34G C71U	< 1e-05			< 1e-05	
A15C G35A	< 1e-05	< 1e-05	< 1e-05	< 1e-05	< 1e-05
U55A G60C	< 1e-05		< 1e-05		
G35C G38U C50G C68A C70A	0.000136 ± 3.2e-05				0.000258 ± 3.9e-05
G44U U45C G63A	< 1e-05				
A36C A52U	< 1e-05				< 1e-05
G38U A64G	< 1e-05			< 1e-05	
G40C C67A C71A	3.18e-05 ± 1.4e-05				0.000726 ± 0.00011
G51A C61G	< 1e-05	< 1e-05			
G43U C61U C68U	< 1e-05		< 1e-05		< 1e-05
A6C G9U U47G	< 1e-05			< 1e-05	< 1e-05
G7U A36G	< 1e-05		< 1e-05	< 1e-05	< 1e-05
A6C C67G	< 1e-05				
G9U A52G	< 1e-05	< 1e-05			< 1e-05
A12U U47G	0.000706 ± 0.0001			0.0123 ± 0.0039	0.0118 ± 0.002
A33G G40U G59U	< 1e-05	< 1e-05	< 1e-05	< 1e-05	
A6G A14U U31A U57G	< 1e-05	< 1e-05	< 1e-05		< 1e-05
G40U A52C	< 1e-05	< 1e-05			
G40A U47A A53U	6.84e-05 ± 2.5e-05			0.000618 ± 0.00018	
G38C G43U	< 1e-05	< 1e-05	< 1e-05	< 1e-05	< 1e-05
A15U A33C A36C G37U G40C C58U	< 1e-05				< 1e-05
G35C C58A G62U	< 1e-05				
A53G G60U	< 1e-05	< 1e-05	< 1e-05		
G41A U46G G51U	< 1e-05				

Variant	self-cleavage kobs at 40 uM GlcN6P [1] [s⁻¹]	self-cleavage kobs at 160 uM GlcN6P [2] [s⁻¹]	self-cleavage kobs at 640 uM GlcN6P [3] [s⁻¹]	self-cleavage kobs at 2500 uM GlcN6P [4] [s⁻¹]	self-cleavage kobs at 10000 uM GlcN6P [5] [s⁻¹]
C8G U46A C70G	< 1e-05				
A48U A52U C67A	< 1e-05				< 1e-05
G7A U47C	< 1e-05	< 1e-05	< 1e-05		
G38C U55G	< 1e-05	< 1e-05	< 1e-05	< 1e-05	< 1e-05
G43C U69C	< 1e-05	< 1e-05			
G32C U49A	< 1e-05	< 1e-05	< 1e-05		< 1e-05
C50G C58G G66U C68A	6.12e-05 ± 1.5e-05	0.000177 ± 4e-05	0.000228 ± 8e-05	0.000368 ± 6.5e-05	0.00013 ± 2e-05
G29U U54G C58U U69G	6.42e-05 ± 2.3e-05				
A48G U49C	< 1e-05	< 1e-05	< 1e-05	< 1e-05	< 1e-05
U30G G51A	< 1e-05	< 1e-05	< 1e-05		
U30G A48C C70G	< 1e-05				
G43A G51U G63C A64G	< 1e-05		< 1e-05	< 1e-05	
A14G C34U C50G C68G	7.72e-05 ± 1.6e-05				
G29C U30C	< 1e-05		< 1e-05		
C34G G43C U47A U49C U55G	< 1e-05				< 1e-05
C50U A52U	< 1e-05	< 1e-05	< 1e-05	< 1e-05	< 1e-05
A42U G43U G60U	< 1e-05				
G40U C50A G66U	< 1e-05		< 1e-05	< 1e-05	< 1e-05
C58A G63U U69C	< 1e-05				
C10A U47A	< 1e-05	< 1e-05	< 1e-05		
U46C G62C	< 1e-05				< 1e-05
G29U A48C G63U	< 1e-05				< 1e-05
A6G U57C C70A C71U	< 1e-05	< 1e-05			
C8G U55C	< 1e-05	< 1e-05	< 1e-05		
G37U G40C G44U	< 1e-05				

Variant	self-cleavage kobs at 40 uM GlcN6P [1] [s⁻¹]	self-cleavage kobs at 160 uM GlcN6P [2] [s⁻¹]	self-cleavage kobs at 640 uM GlcN6P [3] [s⁻¹]	self-cleavage kobs at 2500 uM GlcN6P [4] [s⁻¹]	self-cleavage kobs at 10000 uM GlcN6P [5] [s⁻¹]
C16A G62U	< 1e-05	< 1e-05	< 1e-05		
U31C C50G C70U	7.5e-05 ± 2.8e-05	7.9e-05 ± 1.5e-05	7.86e-05 ± 1.6e-05	4.19e-05 ± 1.2e-05	4.29e-05 ± 1.3e-05
C10G A36G	< 1e-05		< 1e-05		< 1e-05
C8U U57G	< 1e-05			< 1e-05	
C50G C58A C68G C71U	9.15e-05 ± 1.8e-05				0.00024 ± 5.2e-05
A6G G7C C16A G41U	< 1e-05				
C8A U69G	8.97e-05 ± 2.7e-05		0.000846 ± 0.00027	0.000592 ± 0.00028	0.000773 ± 0.00027
U54A C68U	0.000391 ± 6.1e-05	0.000218 ± 4.6e-05	0.000767 ± 0.00017	0.000405 ± 0.00011	
G9U G13A A36U G38A U65G	< 1e-05				< 1e-05
A6U A39C	< 1e-05				
C8G G29C A64G	< 1e-05				
A6G G7C	< 1e-05	< 1e-05		< 1e-05	< 1e-05
G43A C61A	< 1e-05	< 1e-05	< 1e-05		
C10U G13U	< 1e-05	< 1e-05	< 1e-05	< 1e-05	< 1e-05
G7A U56C C67U C68U	< 1e-05	< 1e-05	< 1e-05		
U57C G62U C70A	< 1e-05				
U30C U57C	< 1e-05		< 1e-05		
A36C C50G C70U	0.000435 ± 0.00014			0.00027 ± 0.0001	0.000831 ± 0.00026
A6C G43U C67A	< 1e-05				
C11U C50G	0.000107 ± 2.2e-05	0.000271 ± 6.5e-05	0.000371 ± 9e-05	0.000104 ± 2.1e-05	
G9A U47C	< 1e-05	< 1e-05	< 1e-05	< 1e-05	
G51A U65G	< 1e-05	< 1e-05			< 1e-05
